From patent publication US7498306B2, “Peptides binding to the phosphatase 2A protein” (priority 2002, dated 2009)

Columns and labels:
[1] = target: T1, trimeric ABC holoenzyme PP2A1 (Sus scrofa, UniProt P54612+Q29090); experiment: peptide spot membrane binding, detected by western blot, with trimeric PP2A1 holoenzyme; set-up: species or system porcine; details: 4 μg/ml purified protein overnight, pool of antibodies against A, B and C; for binding of Bcl-2 peptide sequence to PP2A1 holoenzyme: Bcl-2 dodecapeptide membrane, FIG. 2; for binding of E4orf4 peptide sequence to PP2A1 protein: E4orf4 dodecapeptide membrane, FIG. 1
T1 construct: The trimeric PP2A1 protein has been purified to homogeneity from porcine brain; from tissue; host or cells: porcine brain
Text: The trimeric PP2A1 protein has been purified to homogeneity from porcine brain.
(§1) We have mapped the binding sites between the E4orf4 proteins (coded by the canine adenovirus type 2) and the anti-apoptotic Bcl-2 protein with PP2A by using the <<peptides spot>> technique previously described (Frank et Overwing. (1996). Meth. Mol. Biol. 66, 149-169).
(§2) This approach is based on the use of membranes containing thereon dodecapeptides representing the whole protein of interest (E4orf4 and Bcl-2) with a two amino acid gap per peptide.
(§3) Each membrane is first saturated one hour at room temperature with TBS containing 5% skim milk powder and 3% BSA, then incubated overnight in the same buffer in the of 4 μg/ml of purified protein (sub-unit A of PP2A and PP2A1 holoenzyme).: Fifty six dodecapeptides covering the whole sequence of the E4orf4 protein and hundred-fifteen dodecapeptides covering the whole sequence of the Bcl-2 protein were synthesized and covalently bound to cellulosic membranes.
The specific interaction of each purified protein (respectively the structural sub-unit A, the regulatory sub-unit of B55(B) or the trimeric ABC holoenzyme (named PP2A1) with a peptide sequence is shown by western blot, following incubation of the membrane with an antibody raised against the structural protein A (A), the regulatory sub-unit B (B) and with a pool of antibodies recognising the A, B, and C proteins of PP2A (ABC) (FIGS. 1 and 2).

[2] = target: T2, regulatory sub-unit B55 (B) of PP2A (Homo sapiens, UniProt P63151); experiment: peptide spot membrane binding, detected by western blot, with PP2A sub-unit B55; details: antibody against sub-unit B
T2 construct: made in house; host or cells: bacteria
T2 sequence (P63151 1-447): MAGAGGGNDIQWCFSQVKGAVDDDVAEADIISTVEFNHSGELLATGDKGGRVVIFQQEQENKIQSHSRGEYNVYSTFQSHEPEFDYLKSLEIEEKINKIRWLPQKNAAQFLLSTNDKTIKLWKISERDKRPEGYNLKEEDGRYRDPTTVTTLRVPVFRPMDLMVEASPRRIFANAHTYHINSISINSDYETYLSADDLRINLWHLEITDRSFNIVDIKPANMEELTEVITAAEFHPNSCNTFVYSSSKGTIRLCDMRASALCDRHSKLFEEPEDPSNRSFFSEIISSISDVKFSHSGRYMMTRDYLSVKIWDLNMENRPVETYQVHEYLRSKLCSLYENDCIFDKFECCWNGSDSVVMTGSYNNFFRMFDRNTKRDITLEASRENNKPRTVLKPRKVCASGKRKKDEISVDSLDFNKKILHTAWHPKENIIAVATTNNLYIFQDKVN
Text: Recombinant protein B55 (regulatory sub-unit of PP2A) expressed in bacteria.
as §1, §2
as §3, with “membranes. […]” for “membranes.”

[3] = target: T3, structural sub-unit A of PP2A (Homo sapiens, UniProt P30153); experiment: peptide spot membrane binding, detected by western blot, with PP2A sub-unit A; details: E4orf4 dodecapeptide membrane; 4 μg/ml purified protein overnight; antibody against protein A; FIG. 1
T3 construct: made in house; host or cells: bacteria
Text: Recombinant protein A (structural sub-unit of PP2A) expressed in bacteria.
as §1, §2
as §3, with “membranes. […]” for “membranes.”

T1 sequence (P67776 whole entry, one chain of several, further chain): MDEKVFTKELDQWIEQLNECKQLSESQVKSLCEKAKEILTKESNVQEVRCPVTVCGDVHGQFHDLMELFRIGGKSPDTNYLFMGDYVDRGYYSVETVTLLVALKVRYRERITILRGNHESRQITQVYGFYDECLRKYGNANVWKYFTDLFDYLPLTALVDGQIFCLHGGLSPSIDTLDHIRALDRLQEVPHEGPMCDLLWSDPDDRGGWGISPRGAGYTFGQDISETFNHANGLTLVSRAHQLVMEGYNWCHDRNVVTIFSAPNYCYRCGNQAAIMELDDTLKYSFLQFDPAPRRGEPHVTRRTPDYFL
T1 sequence (P54612 whole entry, one chain of several): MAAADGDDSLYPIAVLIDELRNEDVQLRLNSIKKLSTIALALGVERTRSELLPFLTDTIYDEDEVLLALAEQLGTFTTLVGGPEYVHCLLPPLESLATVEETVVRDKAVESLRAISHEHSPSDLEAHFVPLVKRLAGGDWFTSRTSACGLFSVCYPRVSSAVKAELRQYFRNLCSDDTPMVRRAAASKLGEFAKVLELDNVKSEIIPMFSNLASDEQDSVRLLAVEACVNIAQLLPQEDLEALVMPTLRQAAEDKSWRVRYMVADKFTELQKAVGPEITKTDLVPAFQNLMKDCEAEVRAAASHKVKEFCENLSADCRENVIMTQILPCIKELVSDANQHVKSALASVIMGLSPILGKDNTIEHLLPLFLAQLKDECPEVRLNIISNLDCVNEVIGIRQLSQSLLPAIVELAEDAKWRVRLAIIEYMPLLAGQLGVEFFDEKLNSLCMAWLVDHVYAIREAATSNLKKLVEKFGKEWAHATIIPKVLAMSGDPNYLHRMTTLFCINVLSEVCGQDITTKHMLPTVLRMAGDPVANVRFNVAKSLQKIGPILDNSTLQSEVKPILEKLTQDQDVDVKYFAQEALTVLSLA
T3 sequence (P30153 whole entry): as the sequence (P54612 whole entry, one chain of several) above, with T324S counted along it

Row | Substance | binding of Bcl-2 peptide sequence to PP2A1 holoenzyme [1] | binding of E4orf4 peptide sequence to sub-unit A [3] | binding of E4orf4 peptide sequence to PP2A1 protein [1] | also measured
1 | PLQTPAAPGAAAGPAL [site 1-ABC, Bcl-2 residues 71-86, spot peptides 35 to 37] | binding site of Bcl-2 with the PP2A1 holoenzyme | – | – | –
2 | LFDFSWLSLKTLLSLALVGA [site 2-ABC, Bcl-2 residues 209-228, spot peptides 105-109] | binding site of Bcl-2 with the PP2A1 holoenzyme | – | – | –
3 | ARTSPLQTPAAPGAAAGPAL [site 1-B, Bcl-2 residues 67-86, spot peptides 33 to 37] | – | – | – | binding of Bcl-2 peptide sequence to sub-unit B ([2]; Bcl-2 dodecapeptide membrane, FIG. 2): binding site of Bcl-2 with the regulatory sub-unit B
4 | AFRGRE VTVSLLEVFSFC (AFRGREVTVSLLEVFSFC) [site A3, E4orf4 residues 106-124, spot peptides 52 to 55] | – | binding sites of E4orf4 with the sub-unit A | binding sites of E4orf4 with the PP2A1 protein | –
5 | RELGSMLE SPMEFLFDTI DDVTAS (RELGSMLESPMEFLFDTIDDVTAS) [site B1, E4orf4 (canine adenovirus type 2) residues 23-46, spot peptides 12 to 18] | – | – | binding sites of E4orf4 with the PP2A1 protein | binding of E4orf4 peptide sequence to sub-unit B ([2]; E4orf4 dodecapeptide membrane, FIG. 1): binding site of E4orf4 with the structural sub-unit B
6 | LGSMLE SPMEFLFDTI DDVTAS (LGSMLESPMEFLFDTIDDVTAS) [site A 1, E4orf4 residues 25-46, spot peptides 13 to 18] | – | binding sites of E4orf4 with the sub-unit A | – | –
